Laboratory results taken from US20220251182A1, “AGENTS WHICH INHIBIT GADS DIMERIZATION AND METHODS OF USE THEREOF” (Technion Research & Development Foundation Limited, priority 2017, published 2022).
Square brackets hold non-standard residues; d marks the D form. Ends that are not written are not given here. pY = N[C@@H](Cc1ccc(OP(=O)(O)O)cc1)C(=O)O

B13: phospho-LAT (endogenous, TCR-stimulated Jurkat-derived dG32 T cells) (other, UniProt O43561-2 1-233, looked up)
chain: MEEAILVPCVLGLLLLPILAMLMALCVHCHRLPGSYDSTSSDSLYPRGIQFKRPHTVAPWPPAYPPVTSYPPLSQPDLLPIPRSPQPLGGSHRTPSSRRDSDGANSVASYENEEPACEDADEDEDDYHNPGYLVVLPDSTPATSTAAPSAPALSTPGIRDSAFSMESIDDYVNVPESGESAEASLDGSREYVNVSQELHPGAAKTEPAALSSQEAEEVEEEGAPDYENLQELN
modifications: tyrosine-phosphorylated after anti-TCR (C305) stimulation; detected with anti-phospho-LAT (pY132)
notes: Endogenous protein in lysates; also called pLAT; pY132-phosphorylated LAT

Tests used:
[1] = molecular target: T1, monomeric Gads SH2 (Homo sapiens, UniProt O75791); experiment: Size exclusion chromatography of monomeric Gads SH2 incubated with LAT peptides; assay type: binding; details: 0.7 μM MBP-Gads SH2 monomeric fraction, 5 μM peptide, 15 minutes on ice
T1 construct: The SH2 only construct encoded residues Q54-Q153 of Gads, and was tagged at the N-terminus with either MBP or His; made in house; host or cells: E. coli BL21 codon-plus
T1 sequence (O75791 54-153): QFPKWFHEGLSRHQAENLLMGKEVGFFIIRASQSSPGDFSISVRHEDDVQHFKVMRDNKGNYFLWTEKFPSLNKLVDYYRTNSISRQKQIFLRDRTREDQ
Method: FIG. 9A is a schematic representation of two possible modes of Gads binding to 2pY-LAT. […] In FIG. 9C, 0.7 μM full length MBP-Gads from the monomeric fraction, was incubated for 15 minutes at 37° C., either alone (solid line), or in the presence of 5 μM 2pY-LAT peptide (SEQ ID NO: 32, dotted line). […] 20 μM MBP-Gads SH2 from the dimeric fraction was incubated for 30 minutes on ice (blue) or at 37° C. for 15 minutes (red, solid line), followed by an additional 15 minutes at 37° C. in the presence of 40 μM of 2pY-LAT (SEQ ID NO: 32, red dotted line); and then resolved by size exclusion chromatography.
Fast protein liquid chromatography (FPLC)—MBP- and His-tagged proteins were resolved by size exclusion chromatography at 12° C., using an ÄKTA FPLC system (GE Healthcare), fitted with Superdex 200 10/300 or 16/60 HiLoad for MBP-tagged proteins or Superdex 75 10/300 for His-tagged proteins, in column buffer containing 20 mM HEPES pH 7.3, 100 mM NaCl, 1 mM EDTA, 10% glycerol.
Two possible modes of Gads binding to 2pY-LAT were envisioned, single and paired (FIG. 9A). To ensure the availability of both modes, a 7-fold molar excess of 2pY-LAT peptide was applied. In the absence of cooperativity, the large molar excess of unbound SH2-binding sites should favor unpaired binding (FIG. 9A, left).

[2] = molecular target: the molecule itself; experiment: size exclusion chromatography, self-association
[3] = molecular target: the molecule itself; experiment: size exclusion chromatography, Superdex 200 10/300 GL; self-association (dimer)
Method: Size-Exclusion Chromatography and Multi-Angle Light Scattering (SEC-MALS)—The average molecular weight of Gads proteins was determined by SEC-MALS. The system consisted of an ÄKTA avant 25, coupled to a UV detector (GE Healthcare) and a miniDAWN triple-angle light-scattering detector (Wyatt Technology). […] Data collection and analysis was performed with Wyatt's ASTRA 6.1.1 software.

[4] = molecular target: the molecule itself; experiment: size exclusion chromatography; self-association
[5] = molecular target: B13; experiment: streptactin pull-down of twin-strep Gads-GFP from dG32 cell lysates, western blot with anti-pY132-LAT
[6] = molecular target: the molecule itself; experiment: analytical size exclusion chromatography of the dimeric fraction after incubation at 37°C; self-association
[7] = nano-DSF of dimeric MBP-Gads SH2, self-association
[8] = molecular target: pY171-LAT peptide (singly phosphorylated on Y171); experiment: ITC at 25 C, peptide injected into monomeric MBP-Gads SH2; KD = 1/KA, 1:1 model
[9] = molecular target: pY171-LAT peptide (singly phosphorylated on Y171); experiment: isothermal titration calorimetry, 1:1 binding model (Affinimeter), linked-parameter analysis of three repeats
[10] = nano-DSF of dimeric His-SH2, self-association
[11] = molecular target: the molecule itself; experiment: size exclusion chromatography; self-association; remark: listed apart in the source
[12] = molecular target: the molecule itself; experiment: size exclusion chromatography; self-association; remark: listed apart in the source
[13] = molecular target: T2, N-terminally twin-strep-tagged full length human Gads-GFP F92D (human, UniProt O75791 1-330); experiment: streptactin pull-down of twin-strep Gads-GFP from dG32 cell lysates, western blot with anti-pY132-LAT
T2 construct: Expressed in dG32 T cells and in Gads-deficient murine BMMCs; also called Gads F92D; F92D-reconstituted; not shown: N-terminal twin-strep tag; C-terminal monomeric GFP (A206K) from pMIGR
T2 sequence: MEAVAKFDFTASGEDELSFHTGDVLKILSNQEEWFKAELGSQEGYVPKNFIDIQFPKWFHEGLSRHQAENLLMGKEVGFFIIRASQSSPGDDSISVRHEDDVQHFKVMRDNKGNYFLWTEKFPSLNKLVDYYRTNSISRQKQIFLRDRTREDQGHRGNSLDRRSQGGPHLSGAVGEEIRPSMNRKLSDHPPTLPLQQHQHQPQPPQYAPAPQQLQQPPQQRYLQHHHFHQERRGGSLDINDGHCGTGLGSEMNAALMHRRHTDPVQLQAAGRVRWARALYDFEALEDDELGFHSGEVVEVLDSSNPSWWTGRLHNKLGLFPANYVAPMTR

## DDpYVNVPESGESAEASLDGSREpYVNVSQE (DD[pY]VNVPESGESAEASLDGSRE[pY]VNVSQE) [2pY-LAT, 29-residue LAT peptide encompassing tyrosines 171 and 191, doubly phosphorylated]
[1]
  Gads mobility shift on size exclusion chromatography (paired binding / dimeric form): dramatic shift towards the dimeric form

B1: MBP-Gads lacking the C-terminal SH3 and linker (ΔC-SH3+linker, Δ154-328) (other)
chain: MEAVAKFDFTASGEDELSFHTGDVLKILSNQEEWFKAELGSQEGYVPKNFIDIQFPKWFHEGLSRHQAENLLMGKEVGFFIIRASQSSPGDFSISVRHEDDVQHFKVMRDNKGNYFLWTEKFPSLNKLVDYYRTNSISRQKQIFLRDRTREDQTR
notes: Deletion of residues 154-328; also called lacking the C-SH3 domain and the linker domain; not shown: N-terminal MBP tag and its linker from pMAL-C5x (NEB)
[2]
  binding result: binds

B2: full length MBP-tagged Gads (MBP-Gads), wild type (other, not shown: large carriers)
chain: MEAVAKFDFTASGEDELSFHTGDVLKILSNQEEWFKAELGSQEGYVPKNFIDIQFPKWFHEGLSRHQAENLLMGKEVGFFIIRASQSSPGDFSISVRHEDDVQHFKVMRDNKGNYFLWTEKFPSLNKLVDYYRTNSISRQKQIFLRDRTREDQGHRGNSLDRRSQGGPHLSGAVGEEIRPSMNRKLSDHPPTLPLQQHQHQPQPPQYAPAPQQLQQPPQQRYLQHHHFHQERRGGSLDINDGHCGTGLGSEMNAALMHRRHTDPVQLQAAGRVRWARALYDFEALEDDELGFHSGEVVEVLDSSNPSWWTGRLHNKLGLFPANYVAPMTR
notes: Purified as monomeric and dimeric SEC fractions; also called full length Gads; Gads-MBP protein
[3]
  binding result: binds

B3: full length MBP-Gads F92A/R109A (other, not shown: large carriers; small tags and cut ends)
chain: MEAVAKFDFTASGEDELSFHTGDVLKILSNQEEWFKAELGSQEGYVPKNFIDIQFPKWFHEGLSRHQAENLLMGKEVGFFIIRASQSSPGDASISVRHEDDVQHFKVMADNKGNYFLWTEKFPSLNKLVDYYRTNSISRQKQIFLRDRTREDQGHRGNSLDRRSQGGPHLSGAVGEEIRPSMNRKLSDHPPTLPLQQHQHQPQPPQYAPAPQQLQQPPQQRYLQHHHFHQERRGGSLDINDGHCGTGLGSEMNAALMHRRHTDPVQLQAAGRVRWARALYDFEALEDDELGFHSGEVVEVLDSSNPSWWTGRLHNKLGLFPANYVAPMTR
notes: Full length human Gads with double mutation; also called full length Gads F92A/R109A
[4]
  binding result: no binding

B4: N-terminally twin-strep-tagged full length human Gads-GFP F92A/R109A (other)
chain: MEAVAKFDFTASGEDELSFHTGDVLKILSNQEEWFKAELGSQEGYVPKNFIDIQFPKWFHEGLSRHQAENLLMGKEVGFFIIRASQSSPGDASISVRHEDDVQHFKVMADNKGNYFLWTEKFPSLNKLVDYYRTNSISRQKQIFLRDRTREDQGHRGNSLDRRSQGGPHLSGAVGEEIRPSMNRKLSDHPPTLPLQQHQHQPQPPQYAPAPQQLQQPPQQRYLQHHHFHQERRGGSLDINDGHCGTGLGSEMNAALMHRRHTDPVQLQAAGRVRWARALYDFEALEDDELGFHSGEVVEVLDSSNPSWWTGRLHNKLGLFPANYVAPMTR
notes: Expressed in dG32 T cells; also called Gads F92A/R109A; not shown: N-terminal twin-strep tag; C-terminal monomeric GFP (A206K) from pMIGR
[5]
  binding result: no binding

B5: MBP-Gads lacking the N-terminal SH3 (ΔN-SH3 Gads, Δ2-53) (other, not shown: large carriers; small tags and cut ends)
chain: MQFPKWFHEGLSRHQAENLLMGKEVGFFIIRASQSSPGDFSISVRHEDDVQHFKVMRDNKGNYFLWTEKFPSLNKLVDYYRTNSISRQKQIFLRDRTREDQGHRGNSLDRRSQGGPHLSGAVGEEIRPSMNRKLSDHPPTLPLQQHQHQPQPPQYAPAPQQLQQPPQQRYLQHHHFHQERRGGSLDINDGHCGTGLGSEMNAALMHRRHTDPVQLQAAGRVRWARALYDFEALEDDELGFHSGEVVEVLDSSNPSWWTGRLHNKLGLFPANYVAPMTR
notes: Deletion of residues 2-53; also called Gads ΔN; Gads lacking the N-SH3
[6]
  binding result: binds

B6: MBP-Gads SH2 (SH2 only construct, residues Q54-Q153 of Gads), wild type (protein)
chain: QFPKWFHEGLSRHQAENLLMGKEVGFFIIRASQSSPGDFSISVRHEDDVQHFKVMRDNKGNYFLWTEKFPSLNKLVDYYRTNSISRQKQIFLRDRTREDQ
[7]
  temperature of subtle transition of the dimeric form (nano-DSF): approximately 33 °C
[8]
  Kd: 177 nM
[9]
  H: -7230 cal/mol

B7: His-tagged Gads SH2 (His-SH2) (protein)
chain: MHHHHHHGSMQFPKWFHEGLSRHQAENLLMGKEVGFFIIRASQSSPGDFSISVRHEDDVQHFKVMRDNKGNYFLWTEKFPSLNKLVDYYRTNSISRQKQIFLRDRTREDQ
[10]
  temperature of monomerization (first nano-DSF transition): 32.5 °C

B8: MBP-Gads lacking the C-terminal SH3 (ΔCSH3 Gads, Δ274-328) (other)
chain: MEAVAKFDFTASGEDELSFHTGDVLKILSNQEEWFKAELGSQEGYVPKNFIDIQFPKWFHEGLSRHQAENLLMGKEVGFFIIRASQSSPGDFSISVRHEDDVQHFKVMRDNKGNYFLWTEKFPSLNKLVDYYRTNSISRQKQIFLRDRTREDQGHRGNSLDRRSQGGPHLSGAVGEEIRPSMNRKLSDHPPTLPLQQHQHQPQPPQYAPAPQQLQQPPQQRYLQHHHFHQERRGGSLDINDGHCGTGLGSEMNAALMHRRHTDPVQLQAAGRVTR
notes: Deletion of residues 274-328; also called lacking the C-SH3 domain; not shown: N-terminal MBP tag and its linker from pMAL-C5x (NEB)
[2]
  binding result: binds

B9: MBP-Gads SH2 F92A/R109A (other, not shown: large carriers; small tags and cut ends)
chain: MQFPKWFHEGLSRHQAENLLMGKEVGFFIIRASQSSPGDASISVRHEDDVQHFKVMADNKGNYFLWTEKFPSLNKLVDYYRTNSISRQKQIFLRDRTREDQ
notes: Double mutant in the context of MBP-Gads SH2; also called F92A/R109A SH2 mutant
[8]
  Kd: 335 nM
[11]
  binding result: no binding
[9]
  H: -9030 cal/mol

B10: MBP-Gads SH2 R109A (other)
chain: MQFPKWFHEGLSRHQAENLLMGKEVGFFIIRASQSSPGDFSISVRHEDDVQHFKVMADNKGNYFLWTEKFPSLNKLVDYYRTNSISRQKQIFLRDRTREDQ
notes: Point mutant in the context of MBP-Gads SH2; not shown: N-terminal MBP tag and its linker from pMAL-C5x (NEB)
[12]
  binding result: binds

B11: MBP-Gads SH2 R109D (other, not shown: large carriers; small tags and cut ends)
chain: MQFPKWFHEGLSRHQAENLLMGKEVGFFIIRASQSSPGDFSISVRHEDDVQHFKVMDDNKGNYFLWTEKFPSLNKLVDYYRTNSISRQKQIFLRDRTREDQ
notes: Point mutant in the context of MBP-Gads SH2
[12]
  binding result: binds

B12: MBP-Gads lacking the linker (Δlinker Gads, Δ154-267) (other)
chain: MEAVAKFDFTASGEDELSFHTGDVLKILSNQEEWFKAELGSQEGYVPKNFIDIQFPKWFHEGLSRHQAENLLMGKEVGFFIIRASQSSPGDFSISVRHEDDVQHFKVMRDNKGNYFLWTEKFPSLNKLVDYYRTNSISRQKQIFLRDRTREDQQAAGRVRWARALYDFEALEDDELGFHSGEVVEVLDSSNPSWWTGRLHNKLGLFPANYVAPMTR
notes: Deletion of residues 154-267; also called lacking the linker domain; not shown: N-terminal MBP tag and its linker from pMAL-C5x (NEB)
[2]
  binding result: binds

## B13
[13]
  binding result: no binding
